Test results from article PMC8251938, “Cooperation between a T Domain and a Minimal C‐Terminal Docking Domain to Enable Specific Assembly in a Multiprotein NRPS” (Angewandte Chemie (International Ed. in English), 2021).

Assays:
[1] = target: PaxA_(981-1084), T1-CDD di-domain construct (apo), X. cabanillasii JM26 (Xenorhabdus cabanillasii JM26) (UniProt W1J0W9); assay: ITC; PaxA construct titrated with the PaxB NDD peptide or its variant; n=3 for the variants
[2] = target: PaxA_(986-1089), T1-CDD di-domain construct (apo), X. bovienii SS-2004 (Xenorhabdus bovienii SS-2004); assay: as above
[3] = target: T1, PaxB_(1-30) (PaxB NDD), X. cabanillasii JM26 (Xenorhabdus cabanillasii JM26); assay: ITC; apo, replicate 1
T1 chain: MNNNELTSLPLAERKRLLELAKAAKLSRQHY

[4] = target: T1, PaxB_(1-30) (PaxB NDD), X. cabanillasii …; assay: ITC; replicate 3
[5] = target: T1, PaxB_(1-30) (PaxB NDD), X. cabanillasii …; assay: ITC; replicate 1
[6] = target: T1, PaxB_(1-30) (PaxB NDD), X. cabanillasii …; assay: ITC; apo, replicate 3
PaxB NDD = assay: ITC titration of X. cabanillasii PaxA constructs with PaxB NDD; format: binding, Xenorhabdus cabanillasii JM26; details: X. cabanillasii JM26, 20 °C, pH 6.5, one site model
From the text: Unfortunately, despite its very high affinity the complex between the PaxA T1‐^CDD di‐domain construct and the PaxB ^NDD peptide from the PaxS NRPS from X. bovienii SS‐2004 was not suitable for a full structure determination. The closely related species Xenorhabdus cabanillasii JM26 also contains the PaxS NRPS with PaxA and PaxB (Figure S4). […] The affinity of this interaction was not modulated by the presence of the Ppant moiety in the PaxA T1 domain (Figure S7). […] Thus, the interaction between PaxA and PaxB from the PaxS NRPS of X. cabanillasii has biophysical properties very similar to the one from the X. bovienii system and was amenable to a full structural characterization by NMR spectroscopy.
England BioLabs) approach following the manufacturer`s instructions.
Protein expression and purification […]
interactions, proteins from Xenorhabdus cabanillasii and Xenorhabdus bovienii were […]
BAP1 under the control of a T7 promoter. All proteins of interest were expressed as SUMO […]
concentration measurements upon cleavage with Ulp protease. All constructs containing the […]
measurements, proteins were expressed in LB medium. Protein expression was induced at an […]
After expression, cells were lysed by […]
spectrometers equipped with cryogenic 5 mm triple resonance probes. The proton chemical […]
mercaptoethanol and 5 % D2O. Sequential assignments of backbone amide signals and […]

[7] = target: T1, PaxB_(1-30) (PaxB NDD), X. cabanillasii …; assay: ITC; holo (Ppant), replicate 1
[8] = target: T1, PaxB_(1-30) (PaxB NDD), X. cabanillasii …; assay: ITC; holo (Ppant), replicate 2
[9] = target: T1, PaxB_(1-30) (PaxB NDD), X. cabanillasii …; assay: ITC; holo (Ppant), mean of three replicates
[10] = target: T1, PaxB_(1-30) (PaxB NDD), X. cabanillasii …; assay: ITC; holo (Ppant), replicate 3

“PaxB NDD K22E mutant, X. cabanillasii JM26 (domain or fragment)” showed a Kd [1] of 3800 nM.

“PaxB NDD R16E mutant, X. cabanillasii JM26 (domain or fragment)” showed a Kd [1] of 2800 nM.

For “PaxB NDD P10L variant, X. cabanillasii JM26 (domain or fragment)”, the Kd [1] was 3900 nM.

In the case of “PaxB_(1-36) (PaxB NDD), X. bovienii SS-2004 (domain or fragment)”, the Kd [2] is reported as 201 nM and the stoichiometry N [2] is reported as 0.74.

In the case of “PaxB_(1-30) (PaxB NDD), X. cabanillasii JM26 (domain or fragment)”, the Kd [1] is reported as 248 nM and the stoichiometry N [1] is reported as 0.88.

B1: PaxA_(981-1084), T1-CDD di-domain construct (apo), X. cabanillasii JM26 (domain or fragment)
chain: DHSSVITQEYAAPQGEIEEQLADIWQTILKIDRIGRYDNFFELGGHSLLVLQLQSRINEIFDVDISIQQLFAHPSICQLEECIINAQLLQFDADSLQDIYKSME
B1 was tested, and the Kd [3] was 267 nM, the Kd [4] was 224 nM and the Kd [5] was 267 nM. It also gave a Kd [6] of 224 nM.

B2: PaxA981–1084: X. cabanillasii PaxA T1-CDD di-domain (protein)
chain: DHSSVITQEYAAPQGEIEEQLADIWQTILKIDRIGRYDNFFELGGHSLLVLQLQSRINEIFDVDISIQQLFAHPSICQLEECIINAQLLQFDADSLQDIYKSME
In the case of B2, the “n (binding stoichiometry)” value (PaxB NDD) is reported as 0.88±0.01 sites.

B3: PaxA T1-CDD di-domain with the Ppant moiety (holo), X. cabanillasii JM26 (domain or fragment)
chain: DHSSVITQEYAAPQGEIEEQLADIWQTILKIDRIGRYDNFFELGGHSLLVLQLQSRINEIFDVDISIQQLFAHPSICQLEECIINAQLLQFDADSLQDIYKSME
modifications: phosphopantetheinyl (Ppant) arm attached to residue S1027
B3 showed a Kd [7] of 248 nM, a Kd [8] of 220 nM and a Kd [9] of 220 nM. The Kd [10] was 192 nM.
